We go through 2 molecules from patent publication US20030114379A1 (Human Genome Sciences, published 2003).

The target of series [1] is cell surface receptor for MIP-1α (on human monocytes) (human). Nature of the series: cell-based or functional assay.
Series [2] concerns the molecule itself. As to the kind of experiment: sedimentation equilibrium analytical ultracentrifugation for self-association, at several pH values and ionic strengths (Table 10, State 'M'). On the procedure: Sedimentation Equilibrium. Analytical ultracentrifugation experiments were performed on a Beckman model XL-A ultracentrifuge at 20° C. at rotor speeds 23,000, 28,000 and 40,000 rpm. Experiments were carried out at two different starting concentrations in different buffers and ionic strength to study their effect on dimerization (Table 10). Absorbance was measured at 280 nm and the data was collected as an average of five successive radial scans using a 0.003 cm step size. The data was fitted to the following equation: […]
Sedimentation equilibrium. Chemokine ability to associate is dependent on solution conditions such as pH and ionic strength. The association properties of the MPIF-1 and the full length MPIF-1 were studied using ultracentrifugation methods at different pH and ionic strengths. […] The monomeric state of MPIF-1 is consistent with the NMR structure and also from the calculation of the correlation time from ¹⁵N dynamics.

B1: MPIF-1 Mutant-1 (the 'mature' MPIF-1 for E. coli expression, wild type with an N-terminal methionine) (ligand)
chain: MRVTKDAETEFMMSKLPLENPVLLDRFHATSADCCISYTPRSIPCSLLESYFETNSECSKPGVIFLTKKGRRFCANPSDKQVQVCMRMLKLDTRIKTRKN
As for B1, in series [1], the “intracellular calcium mobilization in human monocytes, activity relative to wild type MPIF-1” value was about 2 fold.

B2: MPIF-1Δ23 (truncated human MPIF-1 lacking the 23 N-terminal amino acids of the mature protein, with an N-terminal Met; 77 amino acids, 8.85 kDa) (ligand)
chain: MDRFHATSADCCISYTPRSIPCSLLESYFETNSECSKPGVIFLTKKGRRFCANPSDKQVQVCMRMLKLDTRIKTRKN
notes: Delta 23
B2: in series [2], the binding result was “no binding”.
